Experiment [1] addresses Recombinant LBD of GPIbα (residues 1-290), WT (human) (UniProt P07359). Put plainly: activity/antigen ratio; VWF:GPIbNab ELISA on LBD-WT with nanobody 6C4, pdVWF as reference. In general terms: In an ELISA, binding on a coated surface is turned into a signal by an enzyme label.
The target is the same in experiment [2]. Description: VWF:GPIbNab ELISA on LBD-WT with activating nanobodies; pdVWF as the reference.
Experiment [3] shares this target. Description: VWF:NCo ELISA, immobilised GPIbα-LBD, 250 nM 6D12; activity/antigen ratio.
Experiment [4] shares this target. Description: activity/antigen ratio; VWF:GPIbNab ELISA on LBD-WT with nanobody 6C11, pdVWF as reference.
The target is the same in experiment [5]. Put plainly: activity/antigen ratio; VWF:GPIbNab ELISA on LBD-WT with nanobody 6D12, pdVWF as reference.
For experiment [6] the target is unchanged. Put plainly: activity/antigen ratio; VWF:GPIbR ELISA on LBD-WT with 1.0 mg/mL ristocetin.
In experiment [7] the target is Recombinant LBD of GPIbα (residues 1-290), D235Y/M239V (human) (UniProt P07359). Put plainly: activity/antigen ratio; VWF:GPIbM ELISA on LBD-D235Y/M239V without activator.
Experiment [8] deals with Recombinant LBD of GPIbα (residues 1-290), WT (human) (UniProt P07359). Description: VWF:GPIbNab ELISA on LBD-WT with 6C11; pdVWF as the reference.
For experiment [9] the target is unchanged. Put plainly: VWF:GPIbNab ELISA on LBD-WT with 6C4 or 6D12 (not said which gives which end); pdVWF as the reference.

Sequence of Recombinant LBD of GPIbα (residues 1-290), WT (human) (P07359 17-306 limits assumed, form in doubt): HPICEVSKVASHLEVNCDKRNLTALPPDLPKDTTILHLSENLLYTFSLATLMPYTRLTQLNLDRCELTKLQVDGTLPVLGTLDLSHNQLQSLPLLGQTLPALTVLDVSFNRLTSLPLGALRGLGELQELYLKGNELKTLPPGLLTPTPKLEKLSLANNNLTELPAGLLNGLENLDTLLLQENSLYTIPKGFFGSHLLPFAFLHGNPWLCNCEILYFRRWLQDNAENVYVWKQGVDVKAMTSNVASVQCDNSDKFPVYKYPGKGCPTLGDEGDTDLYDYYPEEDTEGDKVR
Sequence of Recombinant LBD of GPIbα (residues 1-290), D235Y/M239V (human) (P07359 17-306 D251Y/M255V limits assumed, form in doubt): as the sequence (P07359 17-306 limits assumed, form in doubt) above, with D235Y, M239V counted along it

Turning to “Plasma-derived VWF (pdVWF, Alphanate) (from UniProt P04275 764-2813) (ligand)”, the VWF:GPIbNab6C4/VWF:Ag in experiment [1] was found to be 1.05. The VWF:GPIbNab/VWF:Ag ratio in experiment [2] turned out to be 1. In [3], the VWF:NCo/VWF:Ag ratio is 1. Further, the VWF:GPIbNab6C11/VWF:Ag in [4] amounted to 1.01. Moreover, in experiment [5], the VWF:GPIbNab6D12/VWF:Ag came out at 0.93. In addition, the VWF:GPIbR/VWF:Ag in experiment [6] amounted to 0.84.
“Humate P (from UniProt P04275 764-2813) (ligand)”: the VWF:NCo/VWF:Ag ratio in [3] was 1.2.
As to “recombinant VWF (rVWF, Vonvendi) (from UniProt P04275 764-2813) (ligand)”, the VWF:GPIbM/VWF:Ag in experiment [7] amounted to 2.1. The results for the VWF:GPIbNab/VWF:Ag ratio in [8] and in experiment [9] were 2.26 and 1.2 to 1.4, respectively. The VWF:GPIbNab6C4/VWF:Ag in experiment [1] was found to be 1.31. For the same substance, in experiment [3], the VWF:NCo/VWF:Ag ratio is 1.9. Further, in experiment [5], the VWF:GPIbNab6D12/VWF:Ag was 1.26. The VWF:GPIbR/VWF:Ag in [6] turned out to be 1.25.

These data come from patent US20250298041A1.
